Measured values published in IntAct's records for PubMed 38288086.

B1: OTU domain-containing protein 3 (Homo sapiens), Q5T2D3 (parent)
chain: MSRKQAAKSRPGSGSRKAEAERKRDERAARRALAKERRNRPESGGGGGCEEEFVSFANQLQALGLKLREVPGDGNCLFRALGDQLEGHSRNHLKHRQETVDYMIKQREDFEPFVEDDIPFEKHVASLAKPGTFAGNDAIVAFARNHQLNVVIHQLNAPLWQIRGTEKSSVRELHIAYRYGEHYDSVRRINDNSEAPAHLQTDFQMLHQDESNKREKIKTKGMDSEDDLRDEVEDAVQKVCNATGCSDFNLIVQNLEAENYNIESAIIAVLRMNQGKRNNAEENLEPSGRVLKQCGPLWEEGGSGARIFGNQGLNEGRTENNKAQASPSEENKANKNQLAKVTNKQRREQQWMEKKKRQEERHRHKALESRGSHRDNNRSEAEANTQVTLVKTFAALNI
partner: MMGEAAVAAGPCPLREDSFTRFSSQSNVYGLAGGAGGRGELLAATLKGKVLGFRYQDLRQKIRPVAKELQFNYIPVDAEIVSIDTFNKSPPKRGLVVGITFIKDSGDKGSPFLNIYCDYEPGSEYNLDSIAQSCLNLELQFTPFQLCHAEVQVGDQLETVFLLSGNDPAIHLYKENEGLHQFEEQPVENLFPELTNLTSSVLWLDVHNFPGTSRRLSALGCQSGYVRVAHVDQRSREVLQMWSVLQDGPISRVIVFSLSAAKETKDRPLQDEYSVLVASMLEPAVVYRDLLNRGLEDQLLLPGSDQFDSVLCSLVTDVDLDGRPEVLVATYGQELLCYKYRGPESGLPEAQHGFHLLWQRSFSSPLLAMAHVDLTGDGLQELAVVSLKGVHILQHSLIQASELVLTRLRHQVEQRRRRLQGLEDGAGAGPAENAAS

Variants of: B1
Details: with kptn_human KPTN

effect of a mutation on the interaction | Variant
with no effect | C76A
